In patent US20240190939A1:
Values belong to the substance of their own block, whether it stands above or below them.

How the values were obtained:
CD47-His = assay: ELISA: hCD47 His capture, IgG HRP detection
recombinant CD155 = assay: ELISA: CD155/PVR capture, Fc-HRP detection
CD155PVR-His [1] = assay: ELISA: 'CD115/PVR Capture' as printed (legend: CD155PVR-His), Fc-HRP detection
CD155PVR-His [2] = assay: ELISA: CD155-His capture, IgG detection
[3] = molecular target: mouse LTbR on CHO-K1 cells (mouse) (UniProt P50284); assay: flow cytometry on CHO-K1 cells expressing murine LTbR
[4] = molecular target: mouse LTbR on CHO-K1 cells (mouse) (UniProt P50284); assay: flow cytometry on CHO-K1 cells expressing murine LTbR (the sentence names the second value 'for mCD172a(SIRPα)')

Chain of mouse LTbR on CHO-K1 cells (mouse) (P50284 31-415): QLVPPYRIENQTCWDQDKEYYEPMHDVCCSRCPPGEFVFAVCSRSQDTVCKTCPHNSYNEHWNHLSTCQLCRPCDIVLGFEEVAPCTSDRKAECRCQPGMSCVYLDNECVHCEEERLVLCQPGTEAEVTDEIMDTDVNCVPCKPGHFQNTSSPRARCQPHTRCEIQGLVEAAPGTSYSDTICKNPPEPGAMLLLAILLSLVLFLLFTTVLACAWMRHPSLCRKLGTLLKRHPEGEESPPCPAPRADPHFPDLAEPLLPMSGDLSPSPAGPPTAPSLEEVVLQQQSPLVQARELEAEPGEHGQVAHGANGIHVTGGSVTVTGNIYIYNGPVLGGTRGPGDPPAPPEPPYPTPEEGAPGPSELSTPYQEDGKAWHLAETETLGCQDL
Chain of CD47-His (Q61735 19-140): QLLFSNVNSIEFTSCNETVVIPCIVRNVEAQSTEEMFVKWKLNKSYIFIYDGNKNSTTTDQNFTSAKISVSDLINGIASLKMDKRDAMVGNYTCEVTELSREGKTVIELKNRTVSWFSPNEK

Substance: TIGIT Std (receptor)
EC50 (read off the curve) (recombinant CD155): 10 nM
EC50 (read off the curve) (CD155PVR-His [1]): 10 nM

Substance: TIGIT-Fc Std (Fc fusion)
EC50 (read off the curve) (CD155PVR-His [2]): 0.07 nM

The remaining lines, values ahead:

EC50 (read off the curve) (CD47-His): 0.3 nM
Substance: SIRPa-Fc Std (Fc fusion)

EC50 [3]: 11 nM
Substance: murine TIGIT-Fc-LIGHT chimeric protein (from UniProt P86176 29-148) (Fc fusion)

EC50 [4]: 24 nM
Substance: murine CD172a(SIRPα)-Fc-LIGHT chimeric protein (from UniProt P97797 32-373) (Fc fusion)
